Results published in IntAct's records for PubMed 15064750.

B1: Proliferation-associated protein 2G4 (Homo sapiens), Q9UQ80 (parent)
chain: MSGEDEQQEQTIAEDLVVTKYKMGGDIANRVLRSLVEASSSGVSVLSLCEKGDAMIMEETGKIFKKEKEMKKGIAFPTSISVNNCVCHFSPLKSDQDYILKEGDLVKIDLGVHVDGFIANVAHTFVVDVAQGTQVTGRKADVIKAAHLCAEAALRLVKPGNQNTQVTEAWNKVAHSFNCTPIEGMLSHQLKQHVIDGEKTIIQNPTDQQKKDHEKAEFEVHEVYAVDVLVSSGEGKAKDAGQRTTIYKRDPSKQYGLKMKTSRAFFSEVERRFDAMPFTLRAFEDEKKARMGVVECAKHELLQPFNVLYEKEGEFVAQFKFTVLLMPNGPMRITSGPFEPDLYKSEMEVQDAELKALLQSSASRKTQKKKKKKASKTAENATSGETLEENEAGD

Variants of: B1
Details: with npm_human NPM1, P06748
Chain of npm_human NPM1, P06748 (P06748 whole entry): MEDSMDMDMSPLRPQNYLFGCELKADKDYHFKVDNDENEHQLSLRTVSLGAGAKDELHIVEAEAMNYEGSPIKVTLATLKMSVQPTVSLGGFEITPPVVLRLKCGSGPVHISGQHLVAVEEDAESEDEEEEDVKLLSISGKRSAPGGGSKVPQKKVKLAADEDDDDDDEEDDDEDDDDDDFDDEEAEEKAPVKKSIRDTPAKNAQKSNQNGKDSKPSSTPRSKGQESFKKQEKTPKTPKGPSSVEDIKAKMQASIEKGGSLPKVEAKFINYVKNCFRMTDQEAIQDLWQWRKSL

Variant	effect of a mutation on the interaction
R364A;K365A	decreasing interaction
K20A;K22A	disrupting interaction
